# Biological target: PDGF-BB (platelet-derived growth factor BB) (Homo sapiens) (UniProt P01127)
# Assay: filter
# [1] = all P are NapdU, rest DNA, SB18T, 37 C
# [2] = all Z are BndU, rest DNA, SB18T, 37 C
# Chain of PDGF-BB (platelet-derived growth factor BB) (Homo sapiens) (P01127 82-190): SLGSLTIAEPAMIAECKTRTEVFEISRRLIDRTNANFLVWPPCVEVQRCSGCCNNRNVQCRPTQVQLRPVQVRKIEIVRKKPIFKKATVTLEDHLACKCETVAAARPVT
substance,measurement,setting,value
CGACAGCATGTATGCACATCT [5169-4_175],Kd,"as 5169-4_146, PS 15, 3' inverted dT",6.9 pM
CGACAGCATGTATGCACATCT [5169-4_176],Kd,"as 5169-4_146, PS 17, 3' inverted dT",14 pM
CGACAGCATGTATGCACATCT [5169-4_177],Kd,"as 5169-4_146, PS 20, 3' inverted dT",7.2 pM
CGACAGCATGTATGCACATCT [5169-4_178],Kd,"as 5169-4_146, PS 6, 3' inverted dT",11 pM
CGACAGCATGTATGCACATCT [5169-4_179],Kd,"as 5169-4_146, PS 14, 3' inverted dT",7.7 pM
CGACAGCATGTATGCACATCT [5169-4_180],Kd,"as 5169-4_146, PS 16, 3' inverted dT",20 pM
CGACAGCATGTATGCACATCT [5169-4_181],Kd,"as 5169-4_146, PS 18, 3' inverted dT",21 pM
CGACAGCATGTATGCACATCT [5169-4_182],Kd,"as 5169-4_146 plus PS 3' of 9,10,11,12, 3'-idT",39 pM
CGACAGCATGTATGCACATCTA [5169-4_25],Kd,NapdU at P,20 pM
CGACAGCATGTATGCACATCTAG [5169-4_24],Kd,NapdU at P,21 pM
CGACAGCATGTATGCACATCTAGA [5169-4_23],Kd,NapdU at P,20 pM
CGACAGCATGTATGCACATCTAGAG [5169-4_22],Kd,NapdU at P,15 pM
CGACAGCATGTATGCACATCTAGAGG [5169-4_21],Kd,NapdU at P,21 pM
CGACAGCATGTATGCACATCTAGAGGC [5169-4_20],Kd,NapdU at P,14 pM
CGACAGCATGTATGCACATCTAGAGGCT [5169-4_19],Kd,[1],12 pM
CGACAGCATGTATGCACATCTAGAGGCTA [5169-4_18],Kd,NapdU at P,26 pM
CGACAGCATGTATGCACATCTAGAGGCTACCCAGT [5169-4_17],Kd,NapdU at P,20 pM
CGACAGCATGTATGCACATCTAGAGGCTACCCAGTG [5169-4_16],Kd,NapdU at P,16 pM
CGACAGCATGTATGCACATCTAGAGGCTACCCAGTGA [5169-4_15],Kd,NapdU at P,19 pM
CGACAGCATGTATGCACATCTAGAGGCTACCCAGTGAA [5169-4_12],Kd,NapdU at P,64 pM
CGACAGCATGTATGCACATCTAGAGGCTACCCAGTGAATGAGGA [5169-4_5],Kd,NapdU at P,31 pM
CGACAGCATGTATGCACATT [5169-4_78],Kd,"NapdU at P, C3 spacer at 20",280 pM
CGACAGCATGTATGCACTCT [5169-4_76],Kd,"C3 spacer at 18, NapdU at 9,11,13,19,21, C3 spacer walk",1300 pM
CGACAGCATGTATGCCATCT [5169-4_74],Kd,"NapdU at P, C3 spacer at 16",370 pM
CGACAGCTGTATGCACATCT [5169-4_66],Kd,"C3 spacer at 8, NapdU at 9,11,13,19,21, C3 spacer walk",8500 pM
CGACGCATGTATGCACATCT [5169-4_63],Kd,"NapdU at P, C3 spacer at 5",29000 pM
CGACTACGTTACACGCGTTTATAGCGTCAACCCGAGTGAACA [4149-8_14],Kd,[2],13000 pM
CGTTACACGCGTTTATAGCGTCAACCCGAGTGAACA [4149-8_17],Kd,Bn-dU,> 10000 pM
CTCTTACGACTACGTTACACGCGTTTATAGCGTC [4149-8_27],Kd,[2],90 pM
CTCTTACGACTACGTTACACGCGTTTATAGCGTCAACCCGAGTGAACA [4149-8_11],Kd,[2],30 pM
CTGCCTCGACAGCATGTATGCACATCTAGAGGCTA [5169-4_11],Kd,NapdU at P,600 pM
CTGCCTCGACAGCATGTATGCACATCTAGAGGCTACCC [5169-4_10],Kd,NapdU at P,630 pM
CTGCCTCGACAGCATGTATGCACATCTAGAGGCTACCCAGT [5169-4_9],Kd,[1],720 pM
CTGCCTCGACAGCATGTATGCACATCTAGAGGCTACCCAGTGAA [5169-4_8],Kd,NapdU at P,36 pM
CTGCCTCGACAGCATGTATGCACATCTAGAGGCTACCCAGTGAATGA [5169-4_7],Kd,NapdU at P,14 pM
CTGCCTCGACAGCATGTATGCACATCTAGAGGCTACCCAGTGAATGAGGA [5169-4_3],Kd,[1],29 pM
CTTACGACTACGTTACACGCGTTTA [4149-8_35],Kd,Bn-dU,> 10000 pM
CTTACGACTACGTTACACGCGTTTAT [4149-8_34],Kd,Bn-dU,> 10000 pM
CTTACGACTACGTTACACGCGTTTATAG [4149-8_32],Kd,[2],6000 pM
CTTACGACTACGTTACACGCGTTTATAGC [4149-8_31],Kd,[2],300 pM
CTTACGACTACGTTACACGCGTTTATAGCG [4149-8_30],Kd,[2],70 pM
CTTACGACTACGTTACACGCGTTTATAGCGT [4149-8_29],Kd,[2],70 pM
CTTACGACTACGTTACACGCGTTTATAGCGTCAACCCGA [4149-8_26],Kd,[2],80 pM
CTTACGACTACGTTACACGCGTTTATAGCGTCAACCCGAGTGAACA [4149-8_12],Kd,[2],40 pM
E10030 (Fovista),Kd,comparator,47 pM
GACAGCATGTATGCACATCT [5169-4_30],Kd,[1],62 pM
GACAGCATGTATGCACATCT [5169-4_59],Kd,"C3 spacer at 1, NapdU at 9,11,13,19,21, C3 spacer walk",53 pM
GACAGCATGTATGCACATCTA [5169-4_29],Kd,NapdU at P,62 pM
GACAGCATGTATGCACATCTAG [5169-4_28],Kd,NapdU at P,48 pM
GACAGCATGTATGCACATCTAGA [5169-4_27],Kd,NapdU at P,62 pM
GACAGCATGTATGCACATCTAGAG [5169-4_32],Kd,NapdU at P,53 pM
GACAGCATGTATGCACATCTAGAGGCTACCCAGTGAA [5169-4_13],Kd,NapdU at P,27 pM
TACGACTACGTTACACGCGTTTATAGCG [4149-8_65],Kd,"Bn-dU, C3 at 2",> 10000 pM
TACGACTACGTTACACGCGTTTATAGCGTCAACCCGAGTGAACA [4149-8_13],Kd,[2],800 pM
TACGTTACACGCGTTTATAGCGTCAACCCGAGTGAACA [4149-8_16],Kd,[2],22000 pM
TTACACGCGTTTATAGCGTCAACCCGAGTGAACA [4149-8_18],Kd,[2],13000 pM
TTACGACTACGTACACGCGTTTATAGCG [4149-8_75],Kd,"Bn-dU, C3 at 12",> 10000 pM
TTACGACTACGTACACGCGTTTATAGCG [4149-8_76],Kd,"Bn-dU, C3 at 13",> 10000 pM
TTACGACTACGTTACACCGTTTATAGCG [4149-8_81],Kd,"Bn-dU, C3 at 18",> 10000 pM
TTACGACTACGTTACACGCGTTATAGCG [4149-8_84],Kd,"Bn-dU, C3 at 21",> 10000 pM
TTACGACTACGTTACACGCGTTATAGCG [4149-8_85],Kd,"Bn-dU, C3 at 22",> 10000 pM
TTACGACTACGTTACACGCGTTATAGCG [4149-8_86],Kd,"Bn-dU, C3 at 23",> 10000 pM
TTACGACTACGTTACACGCGTTTA [4149-8_43],Kd,Bn-dU,> 10000 pM
TTACGACTACGTTACACGCGTTTAAGCG [4149-8_88],Kd,"Bn-dU, C3 at 25",> 10000 pM
TTACGACTACGTTACACGCGTTTAT [4149-8_42],Kd,Bn-dU,> 10000 pM
TTACGACTACGTTACACGCGTTTATACG [4149-8_90],Kd,"Bn-dU, C3 at 27",> 10000 pM
TTACGACTACGTTACACGCGTTTATAG [4149-8_40],Kd,"BndU at 1,2,8,12,13,21,22,23,25, rest DNA, SB18T, 37 C",1500 pM
TTACGACTACGTTACACGCGTTTATAGCG [4149-8_38],Kd,"BndU at 1,2,8,12,13,21,22,23,25, rest DNA, SB18T, 37 C, text p191 gives 20 pM, Table 1a 30 pM",50 pM
TTACGACTACGTTACACGCGTTTATAGCG [4149-8_104],Kd,"Bn-dU, 2'-OMe U2",> 10000 pM
TTACGACTACGTTACACGCGTTTATAGCG [4149-8_107],Kd,"Bn-dU, 2'-OMe U13",> 10000 pM
TTACGACTACGTTACACGCGTTTATAGCG [4149-8_108],Kd,"Bn-dU, 2'-OMe U21",> 10000 pM
TTACGACTACGTTACACGCGTTTATAGCG [4149-8_109],Kd,"Bn-dU, 2'-OMe U22",> 10000 pM
TTACGACTACGTTACACGCGTTTATAGCG [4149-8_111],Kd,"Bn-dU, Nap-dU1, 2'-OMe U25",> 10000 pM
TTACGACTACGTTACACGCGTTTATAGCGT [4149-8_37],Kd,[2],40 pM
TTACGACTACGTTACACGCGTTTATGCG [4149-8_89],Kd,"Bn-dU, C3 at 26",> 10000 pM
TTACGACTACGTTACACGCTTTATAGCG [4149-8_83],Kd,"Bn-dU, C3 at 20",> 10000 pM
TTACGACTACGTTACACGGTTTATAGCG [4149-8_82],Kd,"Bn-dU, C3 at 19",> 10000 pM
TTACGACTACGTTCACGCGTTTATAGCG [4149-8_77],Kd,"Bn-dU, C3 at 14",> 10000 pM
TTACGACTACTTACACGCGTTTATAGCG [4149-8_74],Kd,"Bn-dU, C3 at 11",> 10000 pM
TTACGCCGTTACACGCGTTTATAGCG [4149-8_102],Kd,"Bn-dU, C3 linkers, 2'-OMe",> 10000 pM
TTACGTTACACGCGTTTATAGCG [4149-8_127],Kd,"Bn-dU, Nap-dU, Heg, 2'-OMe U as printed",> 10000 pM
TTACGTTACACGCGTTTATAGCG [4149-8_129],Kd,"Bn-dU, Nap-dU, Heg, 2'-OMe",> 10000 pM
TTACGTTACACGCGTTTATAGCG [4149-8_134],Kd,Bn-dU,> 10000 pM
TTACGTTACACGCGTTTATAGCG [4149-8_178],Kd,"Bn-dU, Trp-dU8, Heg5, 2'-OMe A3, A11, A21, G24",> 10000 pM
TTACGTTACACGCGTTTATAGCG [4149-8_179],Kd,"Bn-dU, Trp-dU16, Heg5, 2'-OMe A3, A11, A21, G24",> 10000 pM
TTACGTTACACGCGTTTATAGCG [4149-8_180],Kd,"Bn-dU, Trp-dU17, Heg5, 2'-OMe A3, A11, A21, G24",> 10000 pM
TTACGTTACACGCGTTTATAGCG [4149-8_186],Kd,"Bn-dU, 2Nap-dU8, Heg5, 2'-OMe A3, A11, A21, G24",> 10000 pM

# — patent US20160177307
